Drawing on patent US20220267751A1 (MONASH UNIVERSITY, published 2022), this text covers koff, Kd and kon for two molecules.

B2: recombinant plasmin (enzyme)
heavy: EPLDDYVNTQGASLFSVTKKQLGAGSIEECAAKCEEDEEFTCRAFQYHSKEQQCVIMAENRKSSIIIRMRDVVLFEKKVYLSECKTGNGKNYRGTMSKTKNGITCQKWSSTSPHRPRFSPATHPSEGLEENYCRNPDNDPQGPWCYTTDPEKRYDYCDILECEEECMHCSGENYDGKISKTMSGLECQAWDSQSPHAHGYIPSKFPNKNLKKNYCRNPDRELRPWCFTTDPNKRWELCDIPRCTTPPPSSGPTYQCLKGTGENYRGNVAVTVSGHTCQHWSAQTPHTHNRTPENFPCKNLDENYCRNPDGKRAPWCHTTNSQVRWEYCKIPSCDSSPVSTEQLAPTAPPELTPVVQDCYHGDGQSYRGTSSTTTTGKKCQSWSSMTPHRHQKTPENYPNAGLTMNYCRNPDADKGPWCFTTDPSVRWEYCNLKKCSGTEASVVAPPPVVLLPDVETPSEEDCMFGNGKGYRGKRATTVTGTPCQDWAAQEPHRHSIFTPETNPRAGLEKNYCRNPDGDVGGPWCYTTNPRKLYDYCDVPQCAAPSFDCGKPQVEPKKCPGR
light: VVGGCVAHPHSWPWQVSLRTRFGMHFCGGTLISPEWVLTAAHCLEKSPRPSSYKVILGAHQEVNLEPHVQEIEVSRLFLEPTRKDIALLKLSSPAVITDKVIPACLPSPNYVVADRTECFITGWGETQGTFGAGLLKEAQLPVIENKVCNRYEFLNGRVQSTELCAGHLAGGTDSCQGDSGGPLVCFEKDKYILQGVTSWGLGCARPNKPGVYVRVSRFVTWIEGVMRNN
notes: Made by cleaving rPlg with tPA; also called rPlm; recombinant Plm

Assay [1] addresses T1, native plasminogen (purchased from Merck, purified from human plasma) (human, UniProt P00747 20-810).
T1 construct: mature; also called native Plg; nPlg
As to the kind of experiment: SPR (Biacore T200), α2-AP on Ni2+-NTA chip, two-state reaction model, kd1; kd1, first step of the two-state model. For orientation: SPR reads the build-up and loss of mass on a sensor chip optically.

Assay [2] concerns the target T2, native plasmin (purchased from Haematologic Technologies) (UniProt P00747 97-580; P00747 581-810, limits assumed).
T2 construct: Plasmin has two disulphide-linked chains (heavy and light); also called native Plm
As to the kind of experiment: SPR (Biacore T200), α2-AP on Ni2+-NTA chip, 1:1 Langmuir model.

The target in assay [3] is B2. The description is as above.
The target in assay [4] is T3, recombinant plasminogen (human, UniProt P00747 20-810).
T3 construct: also called rPlg; recombinant Plg
Described as above.

In assay [5] the target is T1, native plasminogen (purchased from …). As to the kind of experiment: SPR (Biacore T200), α2-AP on Ni2+-NTA chip, two-state reaction model; overall KD of the two-state reaction model.
Assay [6] has the same target. As to the kind of experiment: SPR (Biacore T200), α2-AP on Ni2+-NTA chip, two-state reaction model, ka1; ka1, first step of the two-state model.
The target in assay [7] is T4, recombinant streptokinase from Streptococcus pyrogenes (so in the source) (Streptococcus pyrogenes (so in the source)).
T4 construct: Immobilised on a Ni2+-NTA chip; also called SK
As to the kind of experiment: SPR (Biacore T200), SK on Ni2+-NTA chip, 1:1 Langmuir model.

B1: recombinant alpha 2-antiplasmin (other, UniProt P08697 40-491, looked up)
chain: NQEQVSPLTLLKLGNQEPGGQTALKSPPGVCSRDPTPEQTHRLARAMMAFTADLFSLVAQTSTCPNLILSPLSVALALSHLALGAQNHTLQRLQQVLHAGSGPCLPHLLSRLCQDLGPGAFRLAARMYLQKGFPIKEDFLEQSEQLFGAKPVSLTGKQEDDLANINQWVKEATEGKIQEFLSGLPEDTVLLLLNAIHFQGFWRNKFDPSLTQRDSFHLDEQFTVPVEMMQARTYPLRWFLLEQPEIQVAHFPFKNNMSFVVLVPTHFEWNVSQVLANLSWDTLHPPLVWERPTKVRLPKLYLKHQMDLVATLSQLGLQELFQAPDLRGISEQSLVVSGVQHQSTLELSEVGVEAAAATSIAMSRMSLSSFSVNRPFLFFIFEDTTGLPLFVGSVRNPNPSAPRELKEQQDSPGNKDFLQSLKGFPRGDKLFGPDLKLVPPMEEDYPQFGSPK
notes: Serpin, immobilised on a Ni2+-NTA chip; also called α2-AP; α2AP
Broadly, the koff is the first-order rate constant of dissociation. What is called Kd is the free concentration of one partner at which half of the binding sites on the other are occupied at equilibrium, for simple one-to-one binding. What is called kon is the rate constant with which the complex forms. Turning to B1, the koff was determined as 0.065 s⁻¹ in assay [1], 0.0043 s⁻¹ in assay [2], 0.00011 s⁻¹ in assay [3] and 0.0005 s⁻¹ in assay [4]. Further, the equilibrium dissociation constant (Kd) amounted to 0.85 nM in assay [2], 0.68 nM in assay [3], 3.4 nM in assay [4] and 9.8 nM in assay [5]. Also, the on-rate constant (kon) in assay [2] is 5.1e+06 M⁻¹ s⁻¹; in assay [3] it was 160000 M⁻¹ s⁻¹; in assay [4], 150000 M⁻¹ s⁻¹; in assay [6], 1.1e+06 M⁻¹ s⁻¹.

Turning to B2, in assay [7], the equilibrium dissociation constant (Kd) came out at 0.04 nM, the koff was 1.6e-05 s⁻¹ and the on-rate constant (kon) was found to be 410000 M⁻¹ s⁻¹.
